Experiment [1] concerns the target T1, Mouse GLP-1 Receptor (Mus musculus, UniProt O35659).
T1 construct: expressed in transfected cells; host or cells: CHO cells
T1 sequence (O35659 22-463): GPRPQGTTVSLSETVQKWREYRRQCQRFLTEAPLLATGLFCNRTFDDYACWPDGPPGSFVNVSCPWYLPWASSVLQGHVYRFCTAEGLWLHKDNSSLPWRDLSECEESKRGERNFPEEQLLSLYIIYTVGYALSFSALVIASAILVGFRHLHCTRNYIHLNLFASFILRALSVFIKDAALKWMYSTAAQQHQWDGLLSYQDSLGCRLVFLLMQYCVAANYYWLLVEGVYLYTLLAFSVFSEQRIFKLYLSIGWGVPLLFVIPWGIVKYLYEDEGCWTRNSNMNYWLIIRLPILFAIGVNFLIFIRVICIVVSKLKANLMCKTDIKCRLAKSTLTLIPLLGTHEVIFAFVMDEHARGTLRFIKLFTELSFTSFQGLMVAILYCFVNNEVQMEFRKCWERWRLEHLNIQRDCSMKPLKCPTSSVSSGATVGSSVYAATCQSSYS
The experiment can be described thus: Stimulation of cAMP synthesis in CHO cells expressing mouse GLP-1 receptor. Format: cell-based. As to conditions: for Emax: CHO, percent of maximal GLP-1 stimulated activity. The procedure:
(§1) CHO-GLP-1R-19 cells (20,000 in 100 μl of media) were plated into each well of a 96-well tissue culture microtiter plate and incubated overnight in a 5% CO2 atmosphere at 37° C. On the day of the assay, cells were washed once with 100 μl of phosphate-buffered saline (PBS). A Biomek 2000 was used to serially dilute all peptides prior to beginning the assay. Serial dilutions were carried out in 100% DMSO.
(§2) 50 μl of each cAMP standard was added by hand and 70 μl of mix reagent (Amersham cAMP SPA kit) was added using the multidrop. […] This standard curve was used to convert CPM to pmol of cAMP.
(§3) Cell plates and peptide plates were loaded onto the Platemate. The media was aspirated from the wells and discarded. 100 uL per well of the peptide/buffer mixture were then added from the peptide plates to initiate the assay. After 30 min. of incubation the peptide/buffer was removed and 50 uL of the lysis reagent 1 solution was added per well. The plate was kept for one hour at RT or overnight if refrigerated and sealed.
(§4) Dose dependence for Compounds was determined at half-log concentrations in duplicate. […] A standard curve was determined using known amounts of cyclic AMP. […] The data were analyzed by nonlinear regression curve fitting (4 parameter sigmoidal dose-response curve) to determine the EC50 of the compounds.

The target in another experiment is T2, Human GLP-1 Receptor (Homo sapiens, UniProt P43220).
T2 construct: Full-length human glucagon-like peptide 1 receptor was stably expressed in CHO-K1 cells; expressed in transfected cells; host or cells: CHO-K1 (clone CHO-GLP1R-19)
T2 sequence (P43220 24-463): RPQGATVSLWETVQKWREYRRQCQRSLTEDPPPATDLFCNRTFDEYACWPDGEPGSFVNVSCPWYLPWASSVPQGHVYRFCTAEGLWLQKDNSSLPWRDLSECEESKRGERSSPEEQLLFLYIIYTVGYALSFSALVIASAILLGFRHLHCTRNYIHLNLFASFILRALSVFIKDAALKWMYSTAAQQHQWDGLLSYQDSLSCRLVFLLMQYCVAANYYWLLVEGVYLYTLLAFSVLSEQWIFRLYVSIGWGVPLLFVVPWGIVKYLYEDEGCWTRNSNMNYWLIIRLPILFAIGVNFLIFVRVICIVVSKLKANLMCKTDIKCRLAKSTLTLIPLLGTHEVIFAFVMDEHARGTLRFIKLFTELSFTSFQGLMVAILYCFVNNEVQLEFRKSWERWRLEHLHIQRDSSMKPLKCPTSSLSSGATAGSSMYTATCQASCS
The experiment can be described thus: Cyclic AMP determination in CHO cells expressing human GLP-1 receptor. The experiment is classed as cell-based. Particulars: for Emax: CHO, percent of maximal GLP-1 stimulated activity; for Emax / Mean Hill: human GLP-1 receptor. As for the experimental part:
as §1, §2, §3, §4

Experiment [2] concerns the target Full-length human glucagon-like peptide 1 receptor (human, UniProt P43220 24-463). The experiment in a line: cell-based or functional assay.
The target of experiment [3] is T3, Mouse GLP-1 Receptor (mouse, UniProt O35659 22-463).
T3 sequence (looked up): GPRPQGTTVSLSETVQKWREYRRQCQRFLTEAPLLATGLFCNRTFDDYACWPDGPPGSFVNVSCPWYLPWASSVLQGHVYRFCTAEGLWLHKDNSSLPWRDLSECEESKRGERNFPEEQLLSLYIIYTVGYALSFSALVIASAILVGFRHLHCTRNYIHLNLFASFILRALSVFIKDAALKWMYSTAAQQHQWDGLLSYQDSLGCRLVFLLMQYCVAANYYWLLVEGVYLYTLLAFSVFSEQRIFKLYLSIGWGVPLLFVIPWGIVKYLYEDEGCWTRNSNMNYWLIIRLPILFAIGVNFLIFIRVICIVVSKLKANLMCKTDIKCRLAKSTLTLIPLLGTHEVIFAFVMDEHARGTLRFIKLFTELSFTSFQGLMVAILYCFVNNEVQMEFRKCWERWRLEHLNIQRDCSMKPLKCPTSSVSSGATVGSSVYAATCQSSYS
The experiment can be described thus: cell-based or functional assay.

*1 amine or outer side, *2 acyl side, *3 side chain or, on linkers, in order; H or OH if unused. Primed or numbered codes have the meaning given here. Where no end group is shown, it is not given here. [ ]: non-standard residue; d: D form. The star is where a group is joined. X1 = 4‑(2′-methylphenyl)‑3‑pyridylalanine, Cc1ccccc1-c1ccncc1C[C@H](N[*:1])C(=O)[*:2]; Bip(2′-Et-4′-OH-5′-I) = CCc1cc(O[*:3])c(I)cc1-c1ccc(C[C@H](N[*:1])C(=O)[*:2])cc1; Phe(4-(2-Et-4-HO-Ph)) = CCc1cc(O)ccc1-c1ccc(C[C@H](N)C(=O)O)cc1; IMeOp = 3-(1H-imidazol-4-yl)-2-methoxypropanoyl; αMePhe(2-F) = C[C@](N)(Cc1ccccc1F)C(=O)O; αMeP = C[C@@]1(C(=O)O)CCCN1; Moc = COC(=O)*

On to `CCc1cc(O)ccc1-c1ccc(C[C@H](NC(=O)[C@H](CC(=O)O)NC(=O)[C@H](CO)NC(=O)[C@@H](NC(=O)[C@](C)(Cc2ccccc2F)NC(=O)[C@@H](NC(=O)CNC(=O)[C@H](CCC(=O)O)NC(=O)[C@]2(C)CCCN2C(=O)C(Cc2c[nH]cn2)OC)[C@@H](C)O)[C@@H](C)O)C(=O)N[C@@H](Cc2ccc(-c3ccccc3C)nc2)C(N)=O)cc1` (single isomer, unassigned) [SEQ ID NO: 173], for which, on Mouse GLP-1 Receptor [1], the “Mean Hill” value is given as 1.4 and the maximum response (Emax) was found to be 99.7%. On Human GLP-1 Receptor, the Emax stood at 95.6% and the “Mean Hill” value is 2.6.
Consider `CCc1cc(O)ccc1-c1ccc(C[C@H](NC(=O)[C@H](CC(=O)O)NC(=O)[C@H](CO)NC(=O)[C@@H](NC(=O)[C@](C)(Cc2ccccc2F)NC(=O)[C@@H](NC(=O)CNC(=O)[C@H](CCC(=O)O)NC(=O)[C@]2(C)CCCN2C(=O)C(Cc2c[nH]cn2)OC)[C@@H](C)O)[C@@H](C)O)C(=O)N[C@@H](Cc2ccc(-c3ccccc3C)nc2)C(N)=O)cc1` (single isomer, unassigned) [SEQ ID NO: 174], for which the “Mean Hill” value is reported as 2.1 at Mouse GLP-1 Receptor [1] and 2.7 at Human GLP-1 Receptor.
Take `CCc1cc(O)ccc1-c1ccc(C[C@H](NC(=O)[C@H](CC(=O)O)NC(=O)[C@H](Cc2c[nH]cn2)NC(=O)[C@@H](NC(=O)[C@](C)(Cc2ccccc2F)NC(=O)[C@@H](NC(=O)CNC(=O)[C@H](CCC(=O)O)NC(=O)[C@]2(C)CCCN2C(=O)C(Cc2c[nH]cn2)OC)[C@@H](C)O)[C@@H](C)O)C(=O)N[C@@H](Cc2ccc(-c3ccccc3C)nc2)C(N)=O)cc1` (single isomer, unassigned) [SEQ ID NO: 175]: at Mouse GLP-1 Receptor [1], the “Mean Hill” value is given as 2.7 and the Emax was found to be 100%. Besides, on Human GLP-1 Receptor, the Emax is 105% and the “Mean Hill” value was 2.8.
`CCc1cc(O)ccc1-c1ccc(C[C@H](NC(=O)[C@H](CC(=O)O)NC(=O)[C@H](Cc2c[nH]cn2)NC(=O)[C@@H](NC(=O)[C@](C)(Cc2ccccc2F)NC(=O)[C@@H](NC(=O)CNC(=O)[C@H](CCC(=O)O)NC(=O)[C@]2(C)CCCN2C(=O)C(Cc2c[nH]cn2)OC)[C@@H](C)O)[C@@H](C)O)C(=O)N[C@@H](Cc2ccc(-c3ccccc3C)nc2)C(N)=O)cc1` (single isomer, unassigned) [SEQ ID NO: 176]: the “Mean Hill” value on Mouse GLP-1 Receptor [1] was determined as 1.9; at Human GLP-1 Receptor it was 3.1.
Regarding `CCc1cc(O)c(I)cc1-c1ccc(C[C@H](NC(=O)[C@H](CC(=O)O)NC(=O)[C@H](CO)NC(=O)[C@@H](NC(=O)C(C)(Cc2ccccc2F)NC(=O)[C@@H](NC(=O)CNC(=O)[C@H](CCC(=O)O)NC(=O)C2(C)CCCN2C(=O)[C@H](Cc2c[nH]cn2)NC(=O)OC)[C@@H](C)O)[C@@H](C)O)C(=O)N[C@@H](Cc2ccc(-c3ccccc3C)nc2)C(N)=O)cc1` (some centres unmarked) [SEQ ID NO: 164], at Mouse GLP-1 Receptor [1], the “Mean Hill” value stood at 2.7 and the Emax amounted to 103%. Also, on Human GLP-1 Receptor, the EC50 is 0.01 nM, the Emax was found to be 97.2% and the “Mean Hill” value was determined as 1.5.
Regarding [IMeOp][αMeP]EGT[αMePhe(2-F)]THD[Phe(4-(2-Et-4-HO-Ph))][X1]-NH2 (also: IMeOp configuration (S or R) not determined) [Compound of SEQ ID NO: 176 (or 175)*], in experiment [2], the “Mean EC50 (nM), stimulation of cAMP synthesis in CHO cells” value (“Mean EC50 (nM), stimulation” below) worked out at 0.03 nM and the “Mean Emax (%), stimulation of cAMP synthesis in CHO cells” value (“Mean Emax (%), stimulation” for short) was 95.8%. In the experiment with Mouse GLP-1 Receptor [3], the “Mean EC50 (nM), stimulation” value came to 0.126 nM and the “Mean Emax (%), stimulation” value stood at 105%.
For [IMeOp][αMeP]EGT[αMePhe(2-F)]THD[Phe(4-(2-Et-4-HO-Ph))][X1]-NH2 (also: IMeOp configuration (R or S) not determined) [Compound of SEQ ID NO: 175 (or 176)*] the same measures were 0.03 nM, 105%, 0.084 nM and 100%.
Moc-H[αMeP]EGT[αMePhe(2-F)]TSD[Bip(2′-Et-4′-OH-5′-I)][X1]-NH2 [Compound of SEQ ID NO: 164]: the “Mean EC50 (nM), stimulation” value was determined as 0.01 nM in experiment [2] and 0.055 nM with Mouse GLP-1 Receptor [3]. Besides, the results for the “Mean Emax (%), stimulation” value (in experiment [2]; with Mouse GLP-1 Receptor [3]) were 97.2% and 103%, respectively.
As for [IMeOp][αMeP]EGT[αMePhe(2-F)]TSD[Phe(4-(2-Et-4-HO-Ph))][X1]-NH2 (also: IMeOp configuration (R or S) not determined) [Compound of SEQ ID NO: 173 (or 174)*], the “Mean EC50 (nM), stimulation” value was determined as 0.018 nM in experiment [2] and 0.114 nM in the experiment with Mouse GLP-1 Receptor [3]. For the same molecule, the “Mean Emax (%), stimulation” value is 95.6% in experiment [2] and 99.7% in the experiment with Mouse GLP-1 Receptor [3].
Turning to Moc-H[αMeP]EGT[αMePhe(2-F)]TSD[Phe(4-(2-Et-4-HO-Ph))][X1]-NH2 [Compound of SEQ ID NO: 158], the “Mean EC50 (nM), stimulation” value in experiment [2] was determined as 0.018 nM; with Mouse GLP-1 Receptor [3], 0.191 nM. Also, the “Mean Emax (%), stimulation” value (in experiment [2]; in the experiment with Mouse GLP-1 Receptor [3]) was 101% throughout.
For [IMeOp][αMeP]EGT[αMePhe(2-F)]TSD[Phe(4-(2-Et-4-HO-Ph))][X1]-NH2 (also: IMeOp configuration (S or R) not determined) [Compound of SEQ ID NO: 174 (or 173)*], in experiment [2], the “Mean EC50 (nM), stimulation” value turned out to be 0.024 nM and the “Mean Emax (%), stimulation” value is 104%. In addition, in the experiment with Mouse GLP-1 Receptor [3], the “Mean EC50 (nM), stimulation” value is 0.273 nM and the “Mean Emax (%), stimulation” value came out at 105%.

What is called Emax is the size of the effect at its maximum, as opposed to the concentration needed. In general, EC50 refers to the concentration giving half of the maximal effect.

(Values after patent US7960349B2 (Bristol-Myers Squibb Company, priority 2006, dated 2011).)
